Measurements from US20220249628.

Molecular target: full length recombinant von Willebrand factor, P04275

B1: recombinant ADAMTS13 (A Disintegrin And Metalloproteinase with Thrombospondin type 1 motif, member-13) (protein)
chain: AAGGILHLELLVAVGPDVFQAHQEDTERYVLTNLNIGAELLRDPSLGAQFRVHLVKMVILTEPEGAPNITANLTSSLLSVCGWSQTINPEDDTDPGHADLVLYITRFDLELPDGNRQVRGVTQLGGACSPTWSCLITEDTGFDLGVTIAHEIGHSFGLEHDGAPGSGCGPSGHVMASDGAAPRAGLAWSPCSRRQLLSLLSAGRARCVWDPPRPQPGSAGHPPDAQPGLYYSANEQCRVAFGPKAVACTFAREHLDMCQALSCHTDPLDQSSCSRLLVPLLDGTECGVEKWCSKGRCRSLVELTPIAAVHGRWSSWGPRSPCSRSCGGGVVTRRRQCNNPRPAFGGRACVGADLQAEMCNTQACEKTQLEFMSQQCARTDGQPLRSSPGGASFYHWGAAVPHSQGDALCRHMCRAIGESFIMKRGDSFLDGTRCMPSGPREDGTLSLCVSGSCRTFGCDGRMDSQQVWDRCQVCGGDNSTCSPRKGSFTAGRAREYVTFLTVTPNLTSVYIANHRPLFTHLAVRIGGRYVVAGKMSISPNTTYPSLLEDGRVEYRVALTEDRLPRLEEIRIWGPLQEDADIQVYRRYGEEYGNLTRPDITFTYFQPKPRQAWVWAAVRGPCSVSCGAGLRWVNYSCLDQARKELVETVQCQGSQQPPAWPEACVLEPCPPYWAVGDFGPCSASCGGGLRERPVRCVEAQGSLLKTLPPARCRAGAQQPAVALETCNPQPCPARWEVSEPSSCTSAGGAGLALENETCVPGADGLEAPVTEGPGSVDEKLPAPEPCVGMSCPPGWGHLDATSAGEKAPSPWGSIRTGAQAAHVWTPAAGSCSVSCGRGLMELRFLCMDSALRVPVQEELCGLASKPGSRREVCQAVPCPARWQYKLAACSVSCGRGVVRRILYCARAHGEDDGEEILLDTQCQGLPRPEPQEACSLEPCPPRWKVMSLGPCSASCGLGTARRSVACVQLDQGQDVEVDEAACAALVRPEASVPCLIADCTYRWHVGTWMECSVSCGDGIQRRRDTCLGPQAQAPVPADFCQHLPKPVTVRGCWAGPCVGQGTPSLVPHEEAAAPGRTTATPAGASLEWSQARGLLFSPAPQPRRLLPGPQENSVQSSACGRQHLEPTGTIDMRGPGQADCAVAIGRPLGEVVTLRVLESSLNCSAGDMLLLWGRLTWRKMCRKLLDMTFSSKTNTLVVRQRCGRPGGGVLLRYGSQLAPETFYRECDMQLFGPWGEIVSPSLSPATSNAGGCRLFINVAPHARIAIHALATNMGAGTEGANASYILIRDTHSLRTTAFHGQQVLYWESESSQAEMEFSEGFLKAQASLRGQYWTLQSWVPEMQDPQSWKGKEGT
In the case of B1, the “176 kDa dimeric VWF cleavage fragment (VWF immunoblot, vortex-based assay, no hemoglobin)” value is reported as “Control reactions with 0.25 U/mL, 0.5 U/mL, and 1 U/mL rADAMTS13 in absence of hemoglobin showed a dose-dependent increase of the 176 kDa dimeric VWF cleavage fragment”, the “ADAMTS13-mediated VWF cleavage in the presence of hemoglobin (176 kDa fragment, densitometry)” value is reported as “rADAMTS13 has a dose-dependent potency to overcome the inhibitory effect of hemoglobin on VWF cleavage” and the “cleavage of rVWF after pre-incubation of hemoglobin and rVWF (176 kDa fragment, densitometry)” value is reported as “rADAMTS13 supplemented after a pre-incubation time of hemoglobin and rVWF was capable to cleave VWF”.
